The text below walks through data of patent publication US20080274993.

The test system of this data set is DSCR1-FLAG (human Down syndrome critical region 1, C-terminal FLAG epitope).
Chain of DSCR1-FLAG (human Down syndrome critical region 1, C-terminal FLAG epitope) (chain, as listed by the source): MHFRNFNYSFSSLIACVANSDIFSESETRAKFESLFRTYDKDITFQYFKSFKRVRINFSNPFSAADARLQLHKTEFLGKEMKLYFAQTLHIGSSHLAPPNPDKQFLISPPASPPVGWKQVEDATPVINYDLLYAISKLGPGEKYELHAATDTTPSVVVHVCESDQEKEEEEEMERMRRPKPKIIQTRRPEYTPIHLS

Turning to calcineurin A (CnA), the “NFATc1 phosphorylation status (Western blot of extracts of activated HUVECs)” value is recorded as “a shift from the dephosphorylated form of NFATc1 to the phosphorylated form in response to DSCR1”.
